{"source": "patent US20240189354A1", "target": "RQR8", "sequence (chain, as listed by the source limits assumed)": "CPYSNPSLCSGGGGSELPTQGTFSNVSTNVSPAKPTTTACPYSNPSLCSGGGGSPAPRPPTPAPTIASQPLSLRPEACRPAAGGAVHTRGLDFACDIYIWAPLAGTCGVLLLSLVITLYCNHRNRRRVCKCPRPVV", "assay": "cell-based or functional assay"}
{"substance": "rituximab (antibody)", "values": [{"measurement": "complement-dependent cytotoxicity (CDC): CAR+ cells eliminated, RTX 100 µg/ml with baby rabbit complement, 2 hours", "value": 85, "unit": "%"}]}
